Measurements taken from patent publication US20050079574A1 (Genentech, published 2005).

B1: RIG scaffold with mutation T57E (VHH, name in Kabat numbering)
VHH: DVQLQESGGGLVQAGGSLRLSCAASGRTGSTYDMGWFRQAPGKERESVAAINWDSAREYYASSVRGRFTISRDNAKKTVYLQMNSLKPEDTAVYTCGAGRIGRSVFNLRRESWVTWWGQGTQVTVSSAGGMDYKDDDDK
B2: RIG scaffold (VHH) (VHH)
VHH: DVQLQESGGGLVQAGGSLRLSCAASGRTGSTYDMGWFRQAPGKERESVAAINWDSARTYYASSVRGRFTISRDNAKKTVYLQMNSLKPEDTAVYTCGAGRIGRSVFNLRRESWVTWWGQGTQVTVSSAGGMDYKDDDDK
notes: also called RIG-Parent Scaffold; RIG VHH domain
B3: RIG scaffold alanine point mutant S100A (VHH, name in Kabat numbering)
VHH: DVQLQESGGGLVQAGGSLRLSCAASGRTGSTYDMGWFRQAPGKERESVAAINWDSARTYYASSVRGRFTISRDNAKKTVYLQMNSLKPEDTAVYTCGAGRIGRAVFNLRRESWVTWWGQGTQVTVSSAGGMDYKDDDDK
B4: RIG scaffold alanine point mutant V100jA (VHH, name in Kabat numbering)
VHH: DVQLQESGGGLVQAGGSLRLSCAASGRTGSTYDMGWFRQAPGKERESVAAINWDSARTYYASSVRGRFTISRDNAKKTVYLQMNSLKPEDTAVYTCGAGRIGRSVFNLRRESWATWWGQGTQVTVSSAGGMDYKDDDDK
B5: LLR scaffold (VHH) (VHH)
VHH: DVQLQESGGGLVQAGGSLRLSCAASGRTGSTYDMGWFRQAPGKERESVAAINWDSARTYYASSVRGRFTISRDNAKKTVYLQMNSLKPEDTAVYTCGAGLLRRGVNATPNWFGLVGWGQGTQVTVSSAGGMDYKDDDDK
B6: VLK scaffold (VHH) (VHH)
VHH: DVQLQESGGGLVQAGGSLRLSCAASGRTGSTYDMGWFRQAPGKERESVAAINWDSARTYYASSVRGRFTISRDNAKKTVYLQMNSLKPEDTAVYTCGAGVLKRRGSSVAIFTRVQSWGQGTQVTVSSAGGMDYKDDDDK
B7: llama anti-HCG monobody variable heavy chain (VHH), wild type (VHH)
VHH: DVQLQESGGGLVQAGGSLRLSCAASGRTGSTYDMGWFRQAPGKERESVAAINWDSARTYYASSVRGRFTISRDNAKKTVYLQMNSLKPEDTAVYTCGAGEGGTWDSWGQGTQVTVSSAGGMDYKDDDDK
notes: also called wild type anti-HCG scaffold; llama a-HCG
B8: RLV scaffold (VHH) (VHH)
VHH: DVQLQESGGGLVQAGGSLRLSCAASGRTGSTYDMGWFRQAPGKERESVAAINWDSARTYYASSVRGRFTISRDNAKKTVYLQMNSLKPEDTAVYTCGAGRLVNGLSGLVSWEMPLAWGQGTQVTVSSAGGMDYKDDDDK

Target: T1, Protein A (UniProt P38507 37-477)
T1 construct: also called Protein A (Sigma)
Assay: Biacore

B1: no binding.

Target: T1, Protein A
Assay: BiaCore, Protein A on CM5 chip

B2 and B3 are within 1.5-fold of each other in Kd: 800 nM for the first, 600 nM for the second.

In the case of B4, the Kd is reported as 800 nM.

Target: T1, Protein A
Assay: BiaCore 3000, Protein A on CM5 chip, steady state fit
Experimental: The affinity for Protein A for each of the individual clones was determined using a BiaCore 3000. Protein A was coated onto CM5 chip, as was BSA and VEGF. The latter two proteins were used as negative controls. Binding isotherms were calculated the steady state response differentials for a series of protein concentrations. The equilibrium dissociation constant (Kd) was determined by fitting the resulting curves (KaleidaGraph, Synergy Software) to the following equation: Ra=[…](Rmax−Rmin)/((1+C/Kd)ⁿ) Where “Ra” is the measured response differential, “Rmax” is the maximal response differential, “Rmin” the minimal response differential and “C” is the ligand concentration. Analysis of NNS Library

Compared with B5, B6 is 3.7-fold lower in Kd: 3300 nM for the first, 900 nM for the second. The second binds more tightly here.

First: B2
Second: B7
The Kd of the first is 2-fold lower: 800 nM for the first, 1600 nM for the second.

B8 showed a Kd of 1800 nM.
